B1: Antihuman MSLN His-Tag scFv clone H1a050 (scFv, V domains shown)
VH: EVQLVQSGGGLVQPDRSLRLSCAASGFTFDDYAMHWVRQAPGKGLEWVSGISWNSGSIGYADSVKGRFTISRDNAKNSLYLQMNSLRAEDTALYYCAKDLGSYYGSGSGMDVWGQGTTVTVSS
VL: SYELTQPPSVSVSPGQTARITCSGNALPKQYAYWYQQKPGQAPVLMIYKDSERPSGIPERFSGSSSGTTVTLTISGVQAEDEADYYCQSADSSHTYKVFGGGTKLTVL
B2: 89Zr-DFO-scFv H1a050 (scFv, V domains shown)
VH: B1 VH
VL: B1 VL
B3: DFO-conjugated His-Tag scFv clone H1a050 (scFv, V domains shown)
VH: B1 VH
VL: B1 VL
B4: 89Zr-DFO-scFv H2a064 (scFv, V domains shown)
VH: QVQLVQSGGGLVQPGRSLRLSCAASGFTFDDYAMHWVRQAPGKGLEWVSGISWNSGSIGYADSVKGRFTISRDNAKNSLYLQMNSLRAEDTALYYCAKDIGSSGWYGAFDIWGQGTTVTVSS
VL: SYELTQPPSVSVSPGQTARITCSGDALPKHYASWYQQKPGQAPVLLIYKDTERPSGIPERFSGSSSGTTVTLTISGVQAEDEADYYCQSADSSVTVVFGGGTKLTVL
B5: DFO-conjugated His-Tag scFv clone H2a064 (scFv, V domains shown)
VH: B4 VH
VL: B4 VL
B6: Antihuman MSLN His-Tag scFv clone H2a064 (scFv, V domains shown)
VH: B4 VH
VL: B4 VL

These binders were tested against Recombinant soluble form (amino acids 297-580) of human mesothelin (r-MSLN) (Homo sapiens, UniProt Q13421) (assay: BLI).

Binder	Kd [nM]
B1	4.68
B2	46.2
B3	3.38
B4	78.2
B5	114
B6	59.6

From article PMC6726835 (Cancer Science, 2019)
